Test results from PMC9050506 (RSC Advances, 2020).

What was measured:
[1] = tested on: dimannosylated peptide P2 (DM); format: binding
[2] = binding partner not given; cited from earlier work

CVN2L0-V2: CVN2L0 variant with one C58E–C73R substitution, three disulfide bonds
Rmax, binding to DM ([1]; SPR sensorgrams Fig. 3E-F): 132 RU

B1: wild-type CV-N: 11 kDa lectin originating from Nostoc ellipsosporum (protein, UniProt P81180 1-101, looked up)
Cyanovirin-N: LGKFSQTCYNSAIQGSVLTSTCERTNGGYNTSSIDLNSVIENVDGSLKWQPSNFIETCRNTQLAGSSELAAECKTRAQQFVSTKINLDDHIANIDGTLKYE
Kd [2]: 5.7 nM

B2: CVN2L0-V4: CVN2L0 variant with Cys–Cys mutagenesis to Trp–Met and Glu–Arg, two disulfide bonds (protein)
chain: LGKFSQTCYNSAIQGSVLTSTCERTNGGYNTSSIDLNSVIENVDGSLKWQPSNFIETWRNTQLAGSSELAAEMKTRAQQFVSTKINLDDHIANIDGTLKYELGKFSQTCYNSAIQGSVLTSTCERTNGGYNTSSIDLNSVIENVDGSLKWQPSNFIETERNTQLAGSSELAAERKTRAQQFVSTKINLDDHIANIDGTLKYE
modifications: left off: His6, N-terminal, state not stated
binding to DM (in words) ([1]; SPR, listed as V4): showed binding
